# Assay results from patent US20240052036A1 (Merck Sharp & Dohme, published 2024).
# T1: recombinant human LAG-3 (rhLAG-3) (human, UniProt P18627 23-450, limits assumed)
# T1 construct: also called CD223
# T1 sequence (looked up): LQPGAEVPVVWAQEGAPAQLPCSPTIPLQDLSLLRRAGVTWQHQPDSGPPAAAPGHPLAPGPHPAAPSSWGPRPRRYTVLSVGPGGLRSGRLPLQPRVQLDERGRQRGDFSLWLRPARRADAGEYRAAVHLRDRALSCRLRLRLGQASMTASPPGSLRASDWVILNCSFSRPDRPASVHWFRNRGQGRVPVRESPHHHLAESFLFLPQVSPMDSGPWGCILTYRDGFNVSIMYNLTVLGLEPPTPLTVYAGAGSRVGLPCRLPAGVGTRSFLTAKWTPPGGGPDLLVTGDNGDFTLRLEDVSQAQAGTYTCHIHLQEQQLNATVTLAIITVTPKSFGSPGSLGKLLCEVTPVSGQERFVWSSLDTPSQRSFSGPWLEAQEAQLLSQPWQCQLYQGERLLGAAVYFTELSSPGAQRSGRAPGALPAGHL
# B1: anti-LAG3 antibody (SEQ ID NOs: 35 and 57, light and heavy chains) (antibody, human IgG4 S228P, kappa, V domains shown)
# VH: QMQLVQSGPEVKKPGTSVKVSCKASGYTFTDYNVDWVRQARGQRLEWIGDINPNDGGTIYAQKFQERVTITVDKSTSTAYMELSSLRSEDTAVYYCARNYRWFGAMDHWGQGTTVTVSS
# VL: DIVMTQTPLSLSVTPGQPASISCKASQSLDYEGDSDMNWYLQKPGQPPQLLIYGASNLESGVPDRFSGSGSGTDFTLKISRVEAEDVGVYYCQQSTEDPRTFGGGTKVEIKR
# notes: Tested in Formulation A (25 mg/mL antibody, 50 mg/mL sucrose, 0.2 mg/mL polysorbate 80, 10 mM histidine pH 5.8, 70 mM L-arginine-HCl); also called Ab6; anti-LAG3 drug product
# Target: T1, recombinant human LAG-3 (rhLAG-3)
# Experiment: binding ELISA, immobilized rhLAG-3, 4-parameter fit, relative potency
# Procedure: The potency assay assesses anti-LAG3 activity in Formulation A through anti-LAG3 binding to immobilized recombinant human LAG-3 (rhLAG-3). Dose response curves were generated by using serial dilutions of anti-LAG3 reference material and test samples. […] Relative potency was calculated by applying Parallel Line Analysis of dose-response curves in SoftMax® Pro. Potency of a test sample was reported as geometric mean potency relative to the reference material with a geometric standard deviation and 95% confidence interval.
binder,measurement,value
B1,binding result,binds
